Values quoted from earlier work, collected in publication PMC4437577.

Molecular target: PR-B (Homo sapiens) (UniProt P06401)
Experiment: analytical ultracentrifugation

In the case of PR-B (from UniProt P06401), the Kd is listed as 8.8 µM.
